Reference: article PMC6754406, “Ran pathway-independent regulation of mitotic Golgi disassembly by Importin-α” (Nature Communications, 2019)

How the values were obtained:
Importin-α (a.a. 70–498) = assay: CD spectra thermal melting assay of complexes with Importin-α; assay type: physicochemical; conditions: CD at 222 nm, 20 to 75 °C, 0.2 mg/ml, 20 mM HEPES pH 7.4, 50 mM NaCl, 3 mM DTT; average of three scans; complex with Importin-α (a.a. 70–498)
Procedure: The CD spectra of the GM130-WT(1–48)•Importin-α (a.a. 70–498), GM130-S25D(1–48)•Importin-α (a.a. 70–498), and GM130-NLS phospho-S25 (a.a. 13–38)•Importin-α (a.a. 70–498) complexes were recorded using an AVIV CD400 spectrometer. Thermal melting temperatures were determined by measuring the ellipticity at a wavelength of 222 nm as a function of temperature from 20 to 75 °C. The protein concentration used in the CD measurements was 0.2 mg/ml in a buffer of 20 mM HEPES (pH 7.4), 50 mM NaCl, and 3 mM DTT. Measurements were taken three times and averaged.

p115-CTD = assay: Competition binding assay, p115-CTD remaining on GST-GM130 in presence of Importin-α FL; conditions: 40 μM Importin-α FL; three independent experiments
Procedure: Fig. 3 GM130 interacts with full-length Importin-α. a, b ITC titration curves (upper) and binding isotherms (lower) of Importin-α FL with GM130-NLS WT (a) and GM130-NLS phospho-S25 (b). Kd values are indicated. c Pulldown assays of Importin-α FL with GM130-WT or GM130-S25D. GST-tagged GM-130-WT or GM130-S25D was incubated with Importin-α FL. GST-bound samples were analyzed by SDS–PAGE and stained with Coomassie blue. d Competition binding assay. p115-CTD was incubated with either GST-GM130-WT or GST-GM130-S25D in the presence of indicated concentrations of Importin-α FL. Samples pulled down by GST beads were analyzed by SDS–PAGE and stained with Coomassie blue. e, f Band intensities of Importin-α FL and p115-CTD from the SDS–PAGE gels in d were quantified and normalized by GST-GM130 intensity. Quantitative plots show normalized Importin-α FL intensities (e) and percent p115-CTD remaining on GM130 (f).
To examine whether Importin-α FL also competes with p115-CTD for GM130 binding, we carried out competition binding assays in the presence of Importin-α FL, p115-CTD, and GM130. […] Moreover, we observed a ~2-fold increase in Importin-α FL pulldown by the phosphomimetic mutant (GM130-S25D) compared to wild-type GM130 (40 μM Importin-α FL; Fig. 3d, e). […]

Importin-β = biological target: T1, Importin-β (Homo sapiens, UniProt Q14974); assay: GST pulldown of Importin-β with RanQ69L (dissociation); assay type: binding; conditions: GM130:RanQ69L:Importin 1:4:1; three independent experiments
T1 construct: GST (N, cleaved yes); made in house; host or cells: Escherichia coli Rosetta
T1 sequence (Q14974 whole entry): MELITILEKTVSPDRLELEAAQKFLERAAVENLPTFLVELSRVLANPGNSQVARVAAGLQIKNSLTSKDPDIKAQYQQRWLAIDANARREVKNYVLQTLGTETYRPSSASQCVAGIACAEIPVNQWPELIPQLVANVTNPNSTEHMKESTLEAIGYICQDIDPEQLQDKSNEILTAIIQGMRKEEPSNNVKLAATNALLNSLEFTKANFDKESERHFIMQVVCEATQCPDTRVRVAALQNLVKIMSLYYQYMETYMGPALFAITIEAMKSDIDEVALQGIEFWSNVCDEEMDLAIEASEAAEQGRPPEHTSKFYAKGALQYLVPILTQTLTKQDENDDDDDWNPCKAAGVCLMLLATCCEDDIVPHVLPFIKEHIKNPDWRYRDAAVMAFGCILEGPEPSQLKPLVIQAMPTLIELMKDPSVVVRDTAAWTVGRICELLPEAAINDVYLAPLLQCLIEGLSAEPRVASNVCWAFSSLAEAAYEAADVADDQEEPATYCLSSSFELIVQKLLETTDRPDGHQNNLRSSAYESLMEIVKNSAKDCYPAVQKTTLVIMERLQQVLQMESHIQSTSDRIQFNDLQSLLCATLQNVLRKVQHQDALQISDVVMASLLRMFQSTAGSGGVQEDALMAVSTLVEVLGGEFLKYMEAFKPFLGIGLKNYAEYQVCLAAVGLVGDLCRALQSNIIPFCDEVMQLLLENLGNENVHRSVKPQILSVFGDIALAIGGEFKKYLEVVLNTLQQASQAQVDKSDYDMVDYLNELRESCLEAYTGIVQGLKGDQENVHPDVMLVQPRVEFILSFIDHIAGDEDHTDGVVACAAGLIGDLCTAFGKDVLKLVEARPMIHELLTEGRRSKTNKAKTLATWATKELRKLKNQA
Procedure: Fig. 4 Ran and a phosphate moiety repress GM130 and Importin-β interaction. a SEC (Superdex 200) elution profiles for the Importin-β•GST-GM130-WT complex (black line), Importin-β (gray line), and GST-GM130-WT (light gray line). The void volume (Vo) is indicated. b–d The peak fractions of the Importin-β•GST-GM130-WT complex (b), Importin-β (c), and GST-GM130-WT (d) were analyzed by SDS–PAGE and stained with Coomassie blue. e, f ITC titration curves (upper) and binding isotherms (lower) of Importin-β with GM130-NLS WT (e) and GM130-NLS phospho-S25 (f). Kd values are indicated. g Competition binding assay. GST-GM130-S25D and Importin-β were incubated with indicated concentrations of GFP-IBB. Samples pulled down by GST beads were analyzed by SDS–PAGE and stained with Coomassie blue. […] GST-bound samples were analyzed by SDS–PAGE and stained with Coomassie blue. i, k Band intensities of Importin-α or Importin-β from the SDS–PAGE gels in h, j were used to determine averages of bound protein. […]
A 1:1 molar ratio of GST-GM130-WT or mutant GM130 and Importin-α FL was incubated with glutathione-coupled sepharose beads (GE Healthcare). After pre-washing with 150 mM NaCl, proteins were eluted by a buffer containing 50 mM reduced glutathione and analyzed by SDS–PAGE. […]

p115-CTD remaining on GM130 (p115-CTD): ~ 38%
release of Importin-β from Importin-β•GM130 complex by RanQ69L (Importin-β): ~ 47%
B1: GM130-WT: wild type GM130 N-terminal region (a.a. 1-85) (protein)
chain: MWPQPRLPPRPAMSEETRQSKLAAAKKKLREYQQRNSPGVPTGAKKKKKIKNGSNPETTTSGGCHSPEDTPKDNAATLQPSDDTVLPGGVPSPGASLTSMAASQNHDADNVPNLMDETKTFSSTESLRQLSQQLNGLVCESATCVNGEGPASSANLKDLESRYQQLAVALDSSYVTNKQLNITIEKLKQQNQEITDQLEEEKKECHQKQGALREQLQVHIQTIGILVSEKAELQTALAHTQHAARQKEGESEDLASRLQYSRRRVGELERALSAVSTQQKKADRYNKELTKERDALRLELYKNTQSNEDLKQEKSELEEKLRVLVTEKAGMQLNLEELQKKLEMTELLLQQFSSRCEAPDANQQLQQAMEERAQLEAHLGQVMESVRQLQMERDKYAENLKGESAMWRQRMQQMSEQVHTLREEKECSMSRVQELETSLAELRNQMAEPPPPEPPAGPSEVEQQLQAEAEHLRKELEGLAGQLQAQVQDNEGLSRLNREQEERLLELERAAELWGEQAEARRQILETMQNDRTTISRALSQNRELKEQLAELQSGFVKLTNENMEITSALQSEQHVKRELGKKLGELQEKLSELKETVELKSQEAQSLQQQRDQYLGHLQQYVAAYQQLTSEKEVLHNQLLLQTQLVDQLQQQEAQGKAVAEMARQELQETQERLEAATQQNQQLRAQLSLMAHPGEGDGLDREEEEDEEEEEEEAVAVPQPMPSIPEDLESREAMVAFFNSAVASAEEEQARLRGQLKEQRVRCRRLAHLLASAQKEPEAAAPAPGTGGDSVCGETHRALQGAMEKLQSRFMELMQEKADLKERVEELEHRCIQLSGETDTIGEYIALYQSQRAVLKERHREKEEYISRLAQDKEEMKVKLLELQELVLRLVGDRNEWHGRFLAAAQNPADEPTSGAPAPQELGAANQQGDLCEVSLAGSVEPAQGEAREGSPRDNPTAQQIMQLLREMQNPRERPGLGSNPCIPFFYRADENDEVKITVI
Tm (Importin-α (a.a. 70–498)): ~ 44 °C
